Where no end group is shown, it is not given here. The star is where a group is joined. FITC = O=C1OC2(c3ccc(O)cc3Oc3cc(O)ccc32)c2ccc(NC(=S)*)cc21; βAla = NCCC(=O)O
Tests used:
Settings in all cases: both partners purified
[1] = target: T1, KIX domain of CREB-binding protein (residues 586–672 of mouse CBP) (mouse, UniProt P45481 586-672); experiment: fluorescence polarisation; 0–100 μM KIX titrated into 25 nM FITC-labeled peptide; 30 °C; 20 mM sodium phosphate pH 7.0, 100 mM NaCl, 0.005% Tween 20
T1 construct: KIX domain, residues 586-672 of mouse CBP; 6xHis-tag and thrombin cleavage site at the N-terminus; source: E. coli BL21(DE3)pLysS, purified (Ni-NTA, gel filtration on Superdex 200 pg)
T1 sequence (P45481 586-672): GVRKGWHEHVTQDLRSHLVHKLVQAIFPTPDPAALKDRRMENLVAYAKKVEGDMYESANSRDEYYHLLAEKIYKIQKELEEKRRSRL

[2] = target: T1, KIX domain of CREB-binding protein …; experiment: fluorescence polarisation; competition: inhibitor (0–200 μM) titrated into a mixture of KIX (2 μM) and FITC-MLL (25 nM); 30 °C; 20 mM sodium phosphate pH 7.0, 100 mM NaCl, 0.005% Tween 20
[3] = target: T1, KIX domain of CREB-binding protein …; experiment: fluorescence polarisation; competition: inhibitor (0–200 μM) titrated into a mixture of KIX (2 μM) and FITC-Myb (25 nM); 30 °C; 20 mM sodium phosphate pH 7.0, 100 mM NaCl, 0.005% Tween 20
[4] = target: T1, KIX domain of CREB-binding protein …; experiment: ITC; 600 μM MLL solution titrated into the cell containing 45 µM KIX; 30 °C; 20 mM Tris–acetate pH 7.0, 50 mM NaCl; one-site binding model
[5] = target: T1, KIX domain of CREB-binding protein …; experiment: SPR; competition: mixture of KIX (5 μM) and inhibitor (0.27–200 μM) injected over immobilised His-tag–GB1–MLL TAD; 30 °C; 20 mM sodium phosphate pH 7.0, 100 mM NaCl, 0.05% Tween 20
[6] = target: T1, KIX domain of CREB-binding protein …; experiment: SPR; His-tag–GB1–MLL TAD immobilised on CM5 by amine coupling (77.9 RU); KIX 0.04–30 μM injected; 30 °C; 20 mM sodium phosphate pH 7.0, 100 mM NaCl, 0.05% Tween 20; equilibrium analysis

Row | Binder | binding result [1] | IC50 [2] [nM] | IC50 [3] [nM] | Kd [4] [nM] | dH [4] [kcal/mol] | stoichiometry N [4] | IC50 [5] [nM] | Kd [6] [nM]
1 | {FITC-βAla}-GYNDEDPEKEKRIKELELLLMSTENELKGQQAL (first residue of the printed peptide; as far as I recall not a residue of c-Myb at this position; c-Myb TAD; 33 residues as printed; also called FITC-Myb; source: synthetic peptide, bought: Biologica Co) [FITC-labeled c-Myb TAD peptide] | binds | – | – | – | – | – | – | –
2 | GNILPSDIMDFVLKNTPSMQALGESPESY (MLL TAD, residues 2842-2869 of human MLL; Tyr residue attached at the C-terminus for concentration determination by UV absorption; also called wild-type peptide; WT; source: E. coli BL21(DE3), purified (Ni-NTA)) [wild-type MLL TAD peptide used as inhibitor in fluorescence polarization] | – | 7100 | 36000 | – | – | – | – | –
3 | GNILPSDIMDFVLKNTPSMQALGESPESY (MLL TAD, residues 2842-2869 of human MLL; Tyr residue attached at the C-terminus for concentration determination by UV absorption; Used in ITC and immobilised in SPR; also called wild-type MLL TAD; WT; source: E. coli BL21(DE3), purified (Ni-NTA); not shown: His6, N-terminal, kept) [His-tag–GB1–MLL TAD (wild type)] | – | – | – | 2020 | -13.1 | 1.02 | 10400 | 4940
4 | GNILPSDIMLFVLKNTPSMQALGESPESY (MLL TAD, residues 2842-2869 of human MLL, with the substitution; Tyr residue attached at the C-terminus for concentration determination by UV absorption; One of the four mutants used without His-tag–GB1 in ITC as well as in CD; source: E. coli BL21(DE3), purified (Ni-NTA, thrombin digestion on the column, anion exchange); not shown: His6, N-terminal, cleaved) [MLL TAD peptide D2851L without His-tag–GB1] | – | – | – | 4800 | -8.8 | 1.02 | – | –
5 | GNILPSDIMDFVLKNLPSMQALGESPESY (MLL TAD, residues 2842-2869 of human MLL, with the substitution; Tyr residue attached at the C-terminus for concentration determination by UV absorption; source: E. coli BL21(DE3), purified (Ni-NTA); not shown: His6, N-terminal, kept) [His-tag–GB1–MLL TAD T2857L] | – | – | – | 1900 | -10.5 | 1.05 | – | –
6 | GNILPSDIMDFVLKNIPSMQALGESPESY (MLL TAD, residues 2842-2869 of human MLL, with the substitution; Tyr residue attached at the C-terminus for concentration determination by UV absorption; One of the four mutants used without His-tag–GB1 in ITC as well as in CD; source: E. coli BL21(DE3), purified (Ni-NTA, thrombin digestion on the column, anion exchange); not shown: His6, N-terminal, cleaved) [MLL TAD peptide T2857I without His-tag–GB1] | – | – | – | 2400 | -10 | 1.04 | – | –
7 | GNILPSDIMDFVLKNYPSMQALGESPESY (MLL TAD, residues 2842-2869 of human MLL, with the substitution; Tyr residue attached at the C-terminus for concentration determination by UV absorption; source: E. coli BL21(DE3), purified (Ni-NTA); not shown: His6, N-terminal, kept) [His-tag–GB1–MLL TAD T2857Y] | – | – | – | 2280 | -12.3 | 1.02 | – | –
8 | GNILPSDIMDFVLKNAPSMQALGESPESY (MLL TAD, residues 2842-2869 of human MLL, with the substitution; Tyr residue attached at the C-terminus for concentration determination by UV absorption; source: E. coli BL21(DE3), purified (Ni-NTA); not shown: His6, N-terminal, kept) [His-tag–GB1–MLL TAD T2857A] | – | – | – | 2620 | -11.8 | 1.03 | – | –
9 | GNILPSDIMDFVLKNFPSMQALGESPESY (MLL TAD, residues 2842-2869 of human MLL, with the substitution; Tyr residue attached at the C-terminus for concentration determination by UV absorption; source: E. coli BL21(DE3), purified (Ni-NTA); not shown: His6, N-terminal, kept) [His-tag–GB1–MLL TAD T2857F] | – | – | – | 2100 | -11.1 | 1.07 | – | –
10 | GNILPSDIMDFVLKNRPSMQALGESPESY (MLL TAD, residues 2842-2869 of human MLL, with the substitution; Tyr residue attached at the C-terminus for concentration determination by UV absorption; source: E. coli BL21(DE3), purified (Ni-NTA); not shown: His6, N-terminal, kept) [His-tag–GB1–MLL TAD T2857R] | – | – | – | 3000 | -12.6 | 1.03 | – | –
11 | GNILPSDIMDFVLKNWPSMQALGESPESY (MLL TAD, residues 2842-2869 of human MLL, with the substitution; Tyr residue attached at the C-terminus for concentration determination by UV absorption; also called designed peptide; source: E. coli BL21(DE3), purified (Ni-NTA)) [designed T2857W peptide used as inhibitor in fluorescence polarization] | – | 3480 | 16000 | – | – | – | – | –
12 | GNILPSDIMDFVLRNLPSMQALGESPESY (MLL TAD, residues 2842-2869 of human MLL, with the substitutions; Tyr residue attached at the C-terminus for concentration determination by UV absorption; also called K2855R/T2857L double mutant; source: E. coli BL21(DE3), purified (Ni-NTA); not shown: His6, N-terminal, kept) [His-tag–GB1–MLL TAD K2855R/T2857L] | – | – | – | 1720 | -9.5 | 1.09 | – | –
13 | GNILPSDIMDFVLKNKPSMQALGESPESY (MLL TAD, residues 2842-2869 of human MLL, with the substitution; Tyr residue attached at the C-terminus for concentration determination by UV absorption; source: E. coli BL21(DE3), purified (Ni-NTA); not shown: His6, N-terminal, kept) [His-tag–GB1–MLL TAD T2857K] | – | – | – | 4900 | -11.7 | 1.02 | – | –
14 | GNILPSDIMDFVLRNWPSMQALGESPESY (MLL TAD, residues 2842-2869 of human MLL, with the substitutions; Tyr residue attached at the C-terminus for concentration determination by UV absorption; also called K2855R/T2857W double mutant; source: E. coli BL21(DE3), purified (Ni-NTA); not shown: His6, N-terminal, kept) [His-tag–GB1–MLL TAD K2855R/T2857W] | – | – | – | 1040 | -12.2 | 1.04 | – | –
15 | GNILPSDIMDFVLKNWPSMQALGESPESY (MLL TAD, residues 2842-2869 of human MLL, with the substitution; Tyr residue attached at the C-terminus for concentration determination by UV absorption; Used in ITC; also called designed T2857W peptide; T2857W mutant of the MLL TAD peptide; source: E. coli BL21(DE3), purified (Ni-NTA); not shown: His6, N-terminal, kept) [His-tag–GB1–MLL TAD T2857W] | – | – | – | 950 | -12.8 | 1.02 | 5670 | –
16 | GNILPSDIMDFVLRNTPSMQALGESPESY (MLL TAD, residues 2842-2869 of human MLL, with the substitution; Tyr residue attached at the C-terminus for concentration determination by UV absorption; One of the four mutants used without His-tag–GB1 in ITC as well as in CD; source: E. coli BL21(DE3), purified (Ni-NTA, thrombin digestion on the column, anion exchange); not shown: His6, N-terminal, cleaved) [MLL TAD peptide K2855R without His-tag–GB1] | – | – | – | 1500 | -13.8 | 0.94 | – | –
17 | GNILPSDLMDFVLKNTPSMQALGESPESY (MLL TAD, residues 2842-2869 of human MLL, with the substitution; Tyr residue attached at the C-terminus for concentration determination by UV absorption; One of the four mutants used without His-tag–GB1 in ITC as well as in CD; source: E. coli BL21(DE3), purified (Ni-NTA, thrombin digestion on the column, anion exchange); not shown: His6, N-terminal, cleaved) [MLL TAD peptide I2849L without His-tag–GB1] | – | – | – | 2800 | -12.3 | 0.947 | – | –
